# Measurements from article PMC5042876.
# Changes are numbered by the printed parent chain. In names and notes the source's numbering stands.
# B1: wild-type PntM (Streptomyces arenae) (protein)
# chain: MTDLPRLPFDNPDIMGIAPQMLALQKEGPIARVGTAGEDAWLVTRYDEVRTLLADRRLRLSNPNPQPSAKSAARAFMVALMAGDDHETEPARHAQMRSLLIPRFSTRRLRLMKTRIEHHVDELLDQLAASAPPVDLHRVLSFRLPTMVVCDLLGVPLADRERFGQWARGTFDQSDNEHSANTFQQVVDYMLELVARKRVEPGDDILSELIAEKDGALSDADIAHLGNAVLLFGYETTIVRIDLGTLLLLRNPVQRAQLAEDPGLAPAAVEEILRLGVGGKGSNALIPRYAHGDITVGETVIRTGDAVMLAIGAANYDDRAFPDGGLFDLTRVRPRSHLAFGHGARHCIGRTLARIELTAVFERLFRRLPDLRLAVPEESLRWQEHRITGGFDEIPVTF
# B2: PntM M81C-BME (Streptomyces arenae; M81C) (protein)
# chain: B1 chain with M81C
# B3: PntM M77S (Streptomyces arenae; M77S) (protein)
# chain: B1 chain with M77S
# B4: PntM M81C (Streptomyces arenae; M81C) (protein)
# chain: B1 chain with M81C
# B5: PntM M81A (Streptomyces arenae; M81A) (protein)
# chain: B1 chain with M81A
# B6: PntM F232A (Streptomyces arenae; F232A) (protein)
# chain: B1 chain with F232A
# B7: PntM F232L (Streptomyces arenae; F232L) (protein)
# chain: B1 chain with F232L
# Substrate: CC1(C)C[C@H]2C=C(C(=O)O)[C@@H]3COC(=O)[C@]4(CO4)[C@]23C1
# Test: purified protein, by the assay type
# Conditions: 30 °C
protein,measurement,setting,value
B1,Km,"other: Wild-type, pH 8.0",36 ± 14 µM
same,kcat,"other: Wild-type, pH 8.0",0.03 s⁻¹
same,kcat/Km,"other: Wild-type, pH 8.0",833 M⁻¹ s⁻¹
B2,Km,"other: M81C-BME, pH 8.0",280 ± 110 µM
same,kcat,"other: M81C-BME, pH 8.0",0.00142 s⁻¹
same,kcat/Km,"other: M81C-BME, pH 8.0",5 M⁻¹ s⁻¹
B3,Km,"other: M77S, pH 8.0",19 ± 4 µM
same,kcat,"other: M77S, pH 8.0",0.000317 s⁻¹
same,kcat/Km,"other: M77S, pH 8.0",16.7 M⁻¹ s⁻¹
B4,Km,"other: M81C, pH 8.0",19 ± 3 µM
same,kcat,"other: M81C, pH 8.0",0.00153 s⁻¹
same,kcat/Km,"other: M81C, pH 8.0",81.7 M⁻¹ s⁻¹
B5,Km,"other: M81A, pH 8.0",37 ± 6 µM
B6,Km,"other: F232A, pH 8.0, n=1",43 ± 5 µM
same,kcat,"other: F232A, pH 8.0, n=1",0.000583 s⁻¹
same,kcat/Km,"other: F232A, pH 8.0, n=1",13.7 M⁻¹ s⁻¹
B7,Km,"other: F232L, pH 8.0",12.0 ± 3 µM
same,kcat,"other: F232L, pH 8.0",0.0015 s⁻¹
same,kcat/Km,"other: F232L, pH 8.0",125 M⁻¹ s⁻¹
